Test system: OPN-ASARM peptide
Assay: Kinase assays of FAM20C mutant proteins
Format: biochemical, human
Conditions: recombinant mouse FAM20C:V5 mutants; for the mutants OPN-ASARM peptide (1) as substrate, FIG. 8f
Description: Site-specific mutagenesis was performed by PCR essentially as described^26, by using primers […] and […] (SEQ ID NO: 25) (FAM20C^GG), […] (SEQ ID NO: 26) and […] (FAM20C^D453G) (SEQ ID NO: 27), […] (SEQ ID NO: 28) and […] (FAM20C^G374R) (SEQ ID NO: 29), […] and […] (FAM20C^G374E) (SEQ ID NO: 30), […] (SEQ ID NO: 31) and […] (FAM20C^E383R) (SEQ ID NO: 32), […] (SEQ ID NO: 33) and […] (FAM20C^R544W) (SEQ ID NO: 34), […] (SEQ ID NO: 35) and […] (FAM20C^1241N)(SEQ ID NO: 36), […] (SEQ ID NO: 37) and […] (FAM20C^G261R) (SEQ ID NO: 38), […] (SEQ ID NO: 39) and […] (FAM20C^D446N) (SEQ ID NO:40). All mutations were confirmed by DNA sequencing.
FAM20C kinase assay with peptides substrates were performed in 10 μl reactions, with 500 μM ATP, including 3 μCi (0.05 μM) of [gamma-^32P]ATP (6000 Ci/mmol, PerkinElmer), 50 mM Tris (pH 7.0), 10 mM MnCl2, 0.1% BSA, purified FAM20C:V5 and peptides. Casein Kinase I (500 units, NEB) was used as a control kinase. mutant versions (5 ng, […]), and peptides (2.5 μg, 1 nmol as a standard condition. 250 ng, […] in FAM20C mutants). Reactions were stopped by adding 1.5 μl 0.1N—HCl, and one half of the reaction volume was pipetted on to P81 phospho-cellulose filter paper^27. The filter papers were washed with 0.5% phosphoric acid and subjected to liquid scintillation counting.

Row | Molecule | kinase activity of FAM20C mutant isoform
1 | D453G: FAM20C:V5 with a mutation in a conserved Asp residue (protein, UniProt Q5MJS3 88-579, looked up, variant D453G, V5 tag, FAM20C:V5 with a mutation in a conserved Asp residue) Extracellular …: DFSSDPASNLTSHSLEKLPSAAEPVDHAPRGQEPRSPPPRDPAHRPLLRDPGPRPRVPPPGPSGDGSLLAKLFEHPLYQGAVPPLTEDDVLFNVNSDIRFNPKAAENPDWPHEGAEGAEFLPTGEAAVNLYPNWLKFHIGINRYELYSRHNPAIDALLRDLGSQKITSVAMKSGGTQLKLIMTFQNYGQALFKPMKQTREQETPPDFFYFSDYERHNAEIAAFHLDRILDFRRVPPVAGRMINMTKEIRDVTRDKKLWRTFFVSPANNICFYGECSYYCSTEHALCGRPDQIEGSLAAFLPDLSLAKRKTWRNPWRRSYHKRKKAEWEVDPDYCEEVKQTPPYDSGHRILDIMDMTVFDFLMGNMGRHHYETFEKFGNETFIIHLDNGRGFGKYSHDELSILAPLHQCCRIRRSTYLRLQLLAKEEHKLSLLMAESLQHDKVAPVLYQLHLEALDRRLRIVLQAVRDCVEKDGLSSVVEDDLATEHRASTER | abolished catalytic activity
2 | 1241N: recombinant mouse FAM20C:V5 carrying Raine syndrome patient mutation 1241N (protein, UniProt Q5MJS3 88-579, looked up, variant I241N, V5 tag, recombinant mouse FAM20C:V5 carrying Raine syndrome patient mutation 1241N) Extracellular …: DFSSDPASNLTSHSLEKLPSAAEPVDHAPRGQEPRSPPPRDPAHRPLLRDPGPRPRVPPPGPSGDGSLLAKLFEHPLYQGAVPPLTEDDVLFNVNSDIRFNPKAAENPDWPHEGAEGAEFLPTGEAAVNLYPNWLKFHIGINRYELYSRHNPANDALLRDLGSQKITSVAMKSGGTQLKLIMTFQNYGQALFKPMKQTREQETPPDFFYFSDYERHNAEIAAFHLDRILDFRRVPPVAGRMINMTKEIRDVTRDKKLWRTFFVSPANNICFYGECSYYCSTEHALCGRPDQIEGSLAAFLPDLSLAKRKTWRNPWRRSYHKRKKAEWEVDPDYCEEVKQTPPYDSGHRILDIMDMTVFDFLMGNMDRHHYETFEKFGNETFIIHLDNGRGFGKYSHDELSILAPLHQCCRIRRSTYLRLQLLAKEEHKLSLLMAESLQHDKVAPVLYQLHLEALDRRLRIVLQAVRDCVEKDGLSSVVEDDLATEHRASTER | no detectable kinase activity
3 | G261R: recombinant mouse FAM20C:V5 carrying Raine syndrome patient mutation G261R (protein, UniProt Q5MJS3 88-579, looked up, variant G261R, V5 tag) Extracellular …: DFSSDPASNLTSHSLEKLPSAAEPVDHAPRGQEPRSPPPRDPAHRPLLRDPGPRPRVPPPGPSGDGSLLAKLFEHPLYQGAVPPLTEDDVLFNVNSDIRFNPKAAENPDWPHEGAEGAEFLPTGEAAVNLYPNWLKFHIGINRYELYSRHNPAIDALLRDLGSQKITSVAMKSRGTQLKLIMTFQNYGQALFKPMKQTREQETPPDFFYFSDYERHNAEIAAFHLDRILDFRRVPPVAGRMINMTKEIRDVTRDKKLWRTFFVSPANNICFYGECSYYCSTEHALCGRPDQIEGSLAAFLPDLSLAKRKTWRNPWRRSYHKRKKAEWEVDPDYCEEVKQTPPYDSGHRILDIMDMTVFDFLMGNMDRHHYETFEKFGNETFIIHLDNGRGFGKYSHDELSILAPLHQCCRIRRSTYLRLQLLAKEEHKLSLLMAESLQHDKVAPVLYQLHLEALDRRLRIVLQAVRDCVEKDGLSSVVEDDLATEHRASTER | diminished kinase activity
4 | G374E: recombinant mouse FAM20C:V5 carrying Raine syndrome patient mutation G374E (protein, UniProt Q5MJS3 88-579, looked up, variant G374E, V5 tag) Extracellular …: DFSSDPASNLTSHSLEKLPSAAEPVDHAPRGQEPRSPPPRDPAHRPLLRDPGPRPRVPPPGPSGDGSLLAKLFEHPLYQGAVPPLTEDDVLFNVNSDIRFNPKAAENPDWPHEGAEGAEFLPTGEAAVNLYPNWLKFHIGINRYELYSRHNPAIDALLRDLGSQKITSVAMKSGGTQLKLIMTFQNYGQALFKPMKQTREQETPPDFFYFSDYERHNAEIAAFHLDRILDFRRVPPVAGRMINMTKEIRDVTRDKKLWRTFFVSPANNICFYGECSYYCSTEHALCERPDQIEGSLAAFLPDLSLAKRKTWRNPWRRSYHKRKKAEWEVDPDYCEEVKQTPPYDSGHRILDIMDMTVFDFLMGNMDRHHYETFEKFGNETFIIHLDNGRGFGKYSHDELSILAPLHQCCRIRRSTYLRLQLLAKEEHKLSLLMAESLQHDKVAPVLYQLHLEALDRRLRIVLQAVRDCVEKDGLSSVVEDDLATEHRASTER | no detectable kinase activity
5 | G374R: recombinant mouse FAM20C:V5 carrying Raine syndrome patient mutation G374R (protein, UniProt Q5MJS3 88-579, looked up, variant G374R, V5 tag) Extracellular …: DFSSDPASNLTSHSLEKLPSAAEPVDHAPRGQEPRSPPPRDPAHRPLLRDPGPRPRVPPPGPSGDGSLLAKLFEHPLYQGAVPPLTEDDVLFNVNSDIRFNPKAAENPDWPHEGAEGAEFLPTGEAAVNLYPNWLKFHIGINRYELYSRHNPAIDALLRDLGSQKITSVAMKSGGTQLKLIMTFQNYGQALFKPMKQTREQETPPDFFYFSDYERHNAEIAAFHLDRILDFRRVPPVAGRMINMTKEIRDVTRDKKLWRTFFVSPANNICFYGECSYYCSTEHALCRRPDQIEGSLAAFLPDLSLAKRKTWRNPWRRSYHKRKKAEWEVDPDYCEEVKQTPPYDSGHRILDIMDMTVFDFLMGNMDRHHYETFEKFGNETFIIHLDNGRGFGKYSHDELSILAPLHQCCRIRRSTYLRLQLLAKEEHKLSLLMAESLQHDKVAPVLYQLHLEALDRRLRIVLQAVRDCVEKDGLSSVVEDDLATEHRASTER | no detectable kinase activity
6 | DN473-474GG: FAM20C:V5 with a mutation in a motif predicted to bind metal ion cofactors (protein, UniProt Q5MJS3 88-579, looked up, variant D473G N474G, V5 tag) Extracellular …: DFSSDPASNLTSHSLEKLPSAAEPVDHAPRGQEPRSPPPRDPAHRPLLRDPGPRPRVPPPGPSGDGSLLAKLFEHPLYQGAVPPLTEDDVLFNVNSDIRFNPKAAENPDWPHEGAEGAEFLPTGEAAVNLYPNWLKFHIGINRYELYSRHNPAIDALLRDLGSQKITSVAMKSGGTQLKLIMTFQNYGQALFKPMKQTREQETPPDFFYFSDYERHNAEIAAFHLDRILDFRRVPPVAGRMINMTKEIRDVTRDKKLWRTFFVSPANNICFYGECSYYCSTEHALCGRPDQIEGSLAAFLPDLSLAKRKTWRNPWRRSYHKRKKAEWEVDPDYCEEVKQTPPYDSGHRILDIMDMTVFDFLMGNMDRHHYETFEKFGNETFIIHLGGGRGFGKYSHDELSILAPLHQCCRIRRSTYLRLQLLAKEEHKLSLLMAESLQHDKVAPVLYQLHLEALDRRLRIVLQAVRDCVEKDGLSSVVEDDLATEHRASTER | abolished catalytic activity
